From patent US12338268B2, “Compositions and methods for treating protein aggregation-associated diseases” (The Board of Trustees of the Leland Stanford Junior …, priority 2019, dated 2025)

Key:
[1] = system: PolyQ35::YFP C. elegans worms; assay: Paralysis assay; type: in vivo; conditions: overexpression; day 6 to 10 of adulthood
Protocol: To analyze the percentage of paralyzed worms, 100 semi-synchronized (timed egg lay for 5 h) young adult worms of each strain were placed on a plate containing 150 μM 5-fluorodeoxyuridine. Screening of paralyzed worms was started at day 6 of adulthood.

α-synuclein = α-synuclein (Homo sapiens, UniProt P37840); conditions: Martin et al., 2018; cited from earlier work
AtxQ78 = biological target: T1, AtxQ78 (Homo sapiens, UniProt P54252, INS305QQQQQQQQQQQQQQQQQQQQQQQQQQQQQQQQQQQQQQQQQQQQQQQQQQQQQQQQQQQQQQQQ); assay: Chemical crosslinking (BS3) and mass spectrometry of NAC-AtxQ78 complexes; type: binding; conditions: NAC and AtxQ78 1:1, BS3 crosslinker, LC-MS
T1 construct: full-length Ataxin-3 harboring a stretch of 78 glutamines (AtxQ78); made in house
T1 sequence (P54252 with tags, fused parts or gaps with the stated changes): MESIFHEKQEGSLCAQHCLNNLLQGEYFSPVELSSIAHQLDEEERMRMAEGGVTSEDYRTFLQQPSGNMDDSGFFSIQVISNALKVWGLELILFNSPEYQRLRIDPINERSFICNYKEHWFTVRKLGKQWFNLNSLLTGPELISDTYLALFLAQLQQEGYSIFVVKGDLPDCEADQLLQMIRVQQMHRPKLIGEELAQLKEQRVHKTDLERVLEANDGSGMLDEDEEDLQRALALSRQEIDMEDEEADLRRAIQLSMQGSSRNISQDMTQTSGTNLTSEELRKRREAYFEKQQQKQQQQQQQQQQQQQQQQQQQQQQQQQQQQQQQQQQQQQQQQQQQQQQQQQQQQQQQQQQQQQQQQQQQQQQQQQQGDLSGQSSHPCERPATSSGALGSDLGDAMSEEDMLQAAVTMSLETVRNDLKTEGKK
Protocol: For crosslinking AtxQ78 was buffer exchanged into 10 mM sodium phosphate (pH 7.2) and added to NAC at a 1:1 ratio (20 μM NAC+20 μM AtxQ78). A 1:1 mixture of BS^3-d^0 and BS^3-d^4 was added to the proteins at 20× and 50× molar excess and the reaction allowed to proceed at room temperature for 1 hour before quenching with the addition of 50 mM Tris-Cl (pH 7.5). Samples were diluted with 2× loading buffer and separated on Tris-tricine gels followed by staining with InstantBlue (Expedeon).
Gel pieces containing the crosslinked complexes were washed with 25 mM ammonium bicarbonate (pH 7.8) for 1 h with shaking. The solution was removed and the pieces destained three times with 25 mM ammonium bicarbonate in 60% acetonitrile. Gel pieces were dehydrated with 100% acetonitrile for 10 min and left to air-dry in a laminar flowhood for 1 h. Rehydration of the gel pieces was achieved by adding 0.1 mg/ml trypsin solution and incubating the samples on ice for 30 min. Excess trypsin was removed and the samples were incubated at 37° C. and 1000 rpm overnight. Peptides were extracted from the gel using 3 washes with 60% acetonitrile/5% formic acid. The extracts were pooled and concentrated using a SpeedVac before being analyzed using a nanoACQUITY LC-system coupled to a Synapt HDMS G2Si mass spectrometer. […]

[2] = biological target: GdmCl-denatured firefly luciferase (Photinus pyralis, UniProt P08659); assay: Luciferase refolding assay; type: biochemical; conditions: denatured luciferase preincubated 1:1 for 15 min at room temperature before adding Hsp70/Hsp40
GdmCl-denatured firefly luciferase, sequence (P08659 whole entry): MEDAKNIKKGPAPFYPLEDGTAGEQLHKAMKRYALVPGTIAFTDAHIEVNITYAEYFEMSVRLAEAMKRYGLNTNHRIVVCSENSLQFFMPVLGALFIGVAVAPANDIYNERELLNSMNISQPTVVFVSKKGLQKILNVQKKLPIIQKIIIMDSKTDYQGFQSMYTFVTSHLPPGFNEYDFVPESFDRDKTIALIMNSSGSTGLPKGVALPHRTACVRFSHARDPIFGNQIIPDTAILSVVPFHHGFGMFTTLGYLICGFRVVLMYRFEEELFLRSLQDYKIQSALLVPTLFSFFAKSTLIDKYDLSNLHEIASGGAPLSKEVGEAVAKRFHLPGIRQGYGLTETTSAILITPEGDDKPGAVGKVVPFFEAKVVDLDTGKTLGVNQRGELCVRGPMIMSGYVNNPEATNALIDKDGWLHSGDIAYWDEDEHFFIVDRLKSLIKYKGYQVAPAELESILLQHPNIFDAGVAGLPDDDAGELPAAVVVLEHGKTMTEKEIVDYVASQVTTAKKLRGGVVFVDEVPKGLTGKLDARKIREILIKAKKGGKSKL
PolyQ35::YFP = PolyQ35::YFP aggregation in C. elegans overexpressing NAC (fluorescence microscopy, SDD-AGE); type: in vivo; conditions: day 3 of adulthood
Text: NAC is a major ribosome-binding factor interacting broadly with nascent chains (del Alamo et al., 2011). However, its assumed chaperone function is poorly investigated. […] Although loss of NAC causes pleiotropic defects in C. elegans (Gamerdinger et al., 2015), this finding raises the possibility that NAC directly exerts a chaperone function on aggregation-prone proteins. In this case, overexpression of NAC should prevent aggregation of PolyQ proteins in vivo. Therefore, we used a C. elegans strain expressing 35 consecutive glutamine residues fused to YFP (PolyQ35::YFP) in body wall muscle cells. This PolyQ length is close to the aggregation threshold in C. elegans muscle cells, leading to progressive, age-dependent aggregation starting at day 2 of adulthood (Morley et al., 2002). We generated transgenic animals that overexpress FLAG-tagged α- and βNAC under the control of the muscle-specific myo-3 promoter. PolyQ aggregation was assessed at day 3 of adulthood by fluorescence microscopy as well as semi-denaturing detergent agarose gel electrophoresis (SDD-AGE), which detects high molecular weight oligomeric PolyQ species (Halfmann and Lindquist, 2008). […] This is evident by magnification of the head regions showing diffuse PolyQ35::YFP and less punctate PolyQ35::YFP structures when NAC was overexpressed (FIG. 1A, head region images). […] To directly test the potential chaperone function of NAC, we employed a peptide composed of 51 consecutive glutamines (PolyQ51) as a model substrate in a well-established in vitro aggregation assay. We initiated aggregation of PolyQ51 by cleaving a solubilizing GST tag with TEV protease and detected aggregates over time using a filter trap assay.
Worms were cultured according to standard techniques with E. coli OP50 as food source (Brenner, 1974). Transgenic strains were generated using standard microinjection protocols (Mello and Fire, 1995). […]

B1: NAC: nascent polypeptide-associated complex, heterodimer of αNAC and βNAC; species not given at the place (C. elegans icd-1/icd-2 when overexpressed in worms) (protein)
chain 1: MTGSTETRQKEVKEPQVDVSDDSDNEAVEQELTEEQRRVAEAAGLGDHIDKQAKQSRSEKKARKLFSKLGLKQVTGVSRVCIRKSKNILFVINKPDVFKSPGSDTYIIFGEAKIEDLTQHAQMSAIENLKPTREAPQLKTVEEDENEDVEEDSTGIEEKDIELVISQANTTRNKAIRALKEADNDIVNAIMSLTM
chain 2: MMDSKAIAERIKKLQAQQEHVRIGGKGTPRRKKKVIHKTAAADDKKLQSNLKKLSVTNIPGIEEVNMIKDDGTVIHFNNPKVQTSVPANTFSVTGSADNKQITEMLPGILNQLGPESLTHLKKLANNVTKLGPDGKGEDEDVPELVGDFDAASKNETKADEQ
Q: With B1 as the molecule, how does the “motility / age-associated paralysis of PolyQ35::YFP-expressing worms” value [1] read?
A: significantly improves motility

Q: And the “aggregation of α-synuclein” value (α-synuclein)?
A: suppresses aggregation

Q: And the “NAC regions crosslinked to AtxQ78” value (AtxQ78)?
A: predominantly crosslinked to AtxQ78 via the N-terminal regions of αNAC and βNAC

Q: And the “luciferase refolding by the Hsp70/Hsp40 system” value [2]?
A: strongly enhanced over levels of just Hsp70/Hsp40 refolding

Q: What about the “insoluble high molecular weight PolyQ35::YFP aggregate species” value (PolyQ35::YFP; NAC overexpressing worms) of the same molecule?
A: less insoluble high molecular weight aggregate species

Q: What about the “PolyQ35::YFP aggregation” value (PolyQ35::YFP; overexpressed in body wall muscle cells (myo-3 promoter), fluorescence microscopy) of the same molecule?
A: effectively suppressed PolyQ35::YFP aggregation
